According to PMC3062689 (Biochemistry, 2011):
Like-named read-outs stand apart in the source and are kept apart here. One block for each molecule: values may come before it.

Legend:
Assay in all cases: SEC-MALS
[1] = target: Mouse arrestin-1-(F86A,F198A, A349V) (mouse) (UniProt P20443)
[2] = target: Mouse arrestin-1-(F86A,F198A) (mouse) (UniProt P20443)
[3] = target: the molecule itself
[4] = target: the molecule itself; remark: listed apart in the source
[5] = target: the molecule itself; remark: listed apart in the source
[6] = target: the molecule itself; remark: listed apart in the source

B1: wild type mouse arrestin-1 (natural protein, UniProt P20443 1-403, looked up)
chain: MAACGKTNKSHVIFKKVSRDKSVTIYLGKRDYVDHVSQVEPVDGVVLVDPELVKGKKVYVTLTCAFRYGQEDIDVMGLTFRRDLYFSRVQVYPPVGAMSVLTQLQESLLKKLGDNTYPFLLTFPDYLPCSVMLQPAPQDVGKSCGVDFEVKAFASDITDPEEDKIPKKSSVRLLIRKVQHAPPEMGPQPSAEASWQFFMSDKPLNLSVSLSKEIYFHGEPIPVTVTVTNNTDKVVKKIKVSVEQIANVVLYSSDYYVKPVASEETQEKVQPNSTLTKTLVLVPLLANNRERRGIALDGKIKHEDTNLASSTIIKEGIDRTVMGILVSYHIKVKLTVSGFLGELTSSEVATEVPFRLMHPQPEDPAKESVQDENLVFEEFARQNLKDTGENTEGKKDEDAGQDE
- Kd [3]: 57.5 µM
- stoichiometry N [4]: 4
- stoichiometry N [5]: 2
- Kd [6]: 63.1 µM

B2: wild type human arrestin-1 (natural protein, UniProt P10523 1-405, looked up)
chain: MAASGKTSKSEPNHVIFKKISRDKSVTIYLGNRDYIDHVSQVQPVDGVVLVDPDLVKGKKVYVTLTCAFRYGQEDIDVIGLTFRRDLYFSRVQVYPPVGAASTPTKLQESLLKKLGSNTYPFLLTFPDYLPCSVMLQPAPQDSGKSCGVDFEVKAFATDSTDAEEDKIPKKSSVRLLIRKVQHAPLEMGPQPRAEAAWQFFMSDKPLHLAVSLNKEIYFHGEPIPVTVTVTNNTEKTVKKIKAFVEQVANVVLYSSDYYVKPVAMEEAQEKVPPNSTLTKTLTLLPLLANNRERRGIALDGKIKHEDTNLASSTIIKEGIDRTVLGILVSYQIKVKLTVSGFLGELTSSEVATEVPFRLMHPQPEDPAKESYQDANLVFEEFARHNLKDAGEAEEGKRDKNDVDE
- Kd [3]: 2.95 µM
- Kd [6]: 224 µM

Further lines, results first:

- Kd [1]: 724 µM
- log Kdim (association constant) [1]: 3.14
- stoichiometry N [1]: 2
Molecule: Mouse arrestin-1-(F86A,F198A, A349V) (from UniProt P20443 1-403) (natural protein)

- Kd [2]: 537 µM
- log Kdim (association constant) [2]: 3.27
- stoichiometry N [2]: 2
Molecule: Mouse arrestin-1-(F86A,F198A) (from UniProt P20443 1-403) (natural protein)
